Data published in publication PMC5717350, “The human CTF4-orthologue AND-1 interacts with DNA polymerase α/primase via its unique C-terminal HMG box” (Open Biology, 2017).

B2: AND-1 SepB (336–826) (domain or fragment, human, UniProt O75717 336-826, looked up)
chain: GDFLNDNAVEIPSFSKGIINDDEDDEDLMMASGRPRQRSHILEDDENSVDISMLKTGSSLLKEEEEDGQEGSIHNLPLVTSQRPFYDGPMPTPRQKPFQSGSTPLHLTHRFMVWNSIGIIRCYNDEQDNAIDVEFHDTSIHHATHLSNTLNYTIADLSHEAILLACESTDELASKLHCLHFSSWDSSKEWIIDLPQNEDIEAICLGQGWAAAATSALLLRLFTIGGVQKEVFSLAGPVVSMAGHGEQLFIVYHRGTGFDGDQCLGVQLLELGKKKKQILHGDPLPLTRKSYLAWIGFSAEGTPCYVDSEGIVRMLNRGLGNTWTPICNTREHCKGKSDHYWVVGIHENPQQLRCIPCKGSRFPPTLPRPAVAILSFKLPYCQIATEKGQMEEQFWRSVIFHNHLDYLAKNGYEYEESTKNQATKEQQELLMKMLALSCKLEREFRCVELADLMTQNAVNLAIKYASRSRKLILAQKLSELAVEKAAELTAT
notes: source: E. coli Rosetta2(DE3), purified (Ni-NTA, Q-Sepharose, TEV cleavage, Superdex 200)

What was measured:
[1] = target: T1, MBP-tagged AND-1CT (837–1129) (human, UniProt O75717 837-1129); test: pull-down; MBP-AND-1 constructs bound to 100 µl amylose resin, 25 nmol GST-B added as prey; PD buffer, 2.5 mg/ml BSA, 4°C; eluted with 20 mM maltose; Coomassie; conditions: both partners purified
T1 construct: also called entire AND-1CT; source: E. coli Rosetta2(DE3), purified (Ni-NTA, Superdex 200)
T1 sequence (looked up): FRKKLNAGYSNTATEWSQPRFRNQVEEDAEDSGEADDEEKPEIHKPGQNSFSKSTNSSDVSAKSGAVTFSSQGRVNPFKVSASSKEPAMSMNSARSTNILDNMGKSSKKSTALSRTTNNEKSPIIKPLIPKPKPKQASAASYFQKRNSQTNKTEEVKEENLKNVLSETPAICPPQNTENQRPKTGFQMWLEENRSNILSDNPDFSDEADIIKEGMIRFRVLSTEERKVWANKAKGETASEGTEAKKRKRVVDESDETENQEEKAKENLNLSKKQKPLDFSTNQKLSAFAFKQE

[2] = target: T2, AND-1 SepB + CT (316–1129) (human, UniProt O75717 316-1129); test: pull-down; GST-B fusion proteins (in figure 6a also GST-Pol α CIP, equimolar) bound to 100 µl glutathione agarose, 2.2 nmol AND-1 (1–1129, 316–1129 or 336–826) added as prey; PD buffer, 2.5 mg/ml BSA, 4°C; Coomassie, anti-His western blot in figure 6a; conditions: both partners purified
T2 construct: source: E. coli Rosetta2(DE3), purified (Ni-NTA, Q-Sepharose, TEV cleavage, Superdex 200)
T2 sequence (looked up): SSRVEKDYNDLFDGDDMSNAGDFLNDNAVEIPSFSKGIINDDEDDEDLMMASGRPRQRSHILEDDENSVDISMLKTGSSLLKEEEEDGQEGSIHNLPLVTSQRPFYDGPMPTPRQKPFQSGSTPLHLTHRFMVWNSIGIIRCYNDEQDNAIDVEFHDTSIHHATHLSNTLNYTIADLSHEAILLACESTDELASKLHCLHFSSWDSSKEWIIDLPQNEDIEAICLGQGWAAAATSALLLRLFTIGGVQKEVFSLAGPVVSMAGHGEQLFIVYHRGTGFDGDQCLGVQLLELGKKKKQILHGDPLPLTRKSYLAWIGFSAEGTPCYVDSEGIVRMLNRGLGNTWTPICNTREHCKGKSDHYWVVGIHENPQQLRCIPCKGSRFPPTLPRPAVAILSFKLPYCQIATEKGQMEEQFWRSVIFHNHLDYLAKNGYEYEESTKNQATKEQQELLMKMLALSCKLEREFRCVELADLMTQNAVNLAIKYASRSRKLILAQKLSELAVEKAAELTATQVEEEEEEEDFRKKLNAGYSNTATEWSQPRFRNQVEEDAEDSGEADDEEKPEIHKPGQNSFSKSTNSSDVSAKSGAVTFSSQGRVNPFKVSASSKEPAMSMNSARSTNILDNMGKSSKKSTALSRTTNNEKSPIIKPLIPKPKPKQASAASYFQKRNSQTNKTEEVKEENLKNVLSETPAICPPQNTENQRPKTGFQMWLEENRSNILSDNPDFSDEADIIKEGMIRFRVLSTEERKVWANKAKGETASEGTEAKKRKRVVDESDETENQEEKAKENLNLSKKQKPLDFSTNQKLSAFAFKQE

[3] = target: T3, Full-length His10-myc-tagged AND-1 (1–1129) (human, UniProt O75717 1-1129); test: as above; conditions: both partners purified
T3 construct: the oligomeric state was measured only on the SepB constructs; also called His-myc-AND-1; human CTF4-orthologue AND-1; source: Sf9 insect cells (baculovirus, MultiBac), purified (Ni-NTA, Q-Sepharose)
T3 sequence (looked up): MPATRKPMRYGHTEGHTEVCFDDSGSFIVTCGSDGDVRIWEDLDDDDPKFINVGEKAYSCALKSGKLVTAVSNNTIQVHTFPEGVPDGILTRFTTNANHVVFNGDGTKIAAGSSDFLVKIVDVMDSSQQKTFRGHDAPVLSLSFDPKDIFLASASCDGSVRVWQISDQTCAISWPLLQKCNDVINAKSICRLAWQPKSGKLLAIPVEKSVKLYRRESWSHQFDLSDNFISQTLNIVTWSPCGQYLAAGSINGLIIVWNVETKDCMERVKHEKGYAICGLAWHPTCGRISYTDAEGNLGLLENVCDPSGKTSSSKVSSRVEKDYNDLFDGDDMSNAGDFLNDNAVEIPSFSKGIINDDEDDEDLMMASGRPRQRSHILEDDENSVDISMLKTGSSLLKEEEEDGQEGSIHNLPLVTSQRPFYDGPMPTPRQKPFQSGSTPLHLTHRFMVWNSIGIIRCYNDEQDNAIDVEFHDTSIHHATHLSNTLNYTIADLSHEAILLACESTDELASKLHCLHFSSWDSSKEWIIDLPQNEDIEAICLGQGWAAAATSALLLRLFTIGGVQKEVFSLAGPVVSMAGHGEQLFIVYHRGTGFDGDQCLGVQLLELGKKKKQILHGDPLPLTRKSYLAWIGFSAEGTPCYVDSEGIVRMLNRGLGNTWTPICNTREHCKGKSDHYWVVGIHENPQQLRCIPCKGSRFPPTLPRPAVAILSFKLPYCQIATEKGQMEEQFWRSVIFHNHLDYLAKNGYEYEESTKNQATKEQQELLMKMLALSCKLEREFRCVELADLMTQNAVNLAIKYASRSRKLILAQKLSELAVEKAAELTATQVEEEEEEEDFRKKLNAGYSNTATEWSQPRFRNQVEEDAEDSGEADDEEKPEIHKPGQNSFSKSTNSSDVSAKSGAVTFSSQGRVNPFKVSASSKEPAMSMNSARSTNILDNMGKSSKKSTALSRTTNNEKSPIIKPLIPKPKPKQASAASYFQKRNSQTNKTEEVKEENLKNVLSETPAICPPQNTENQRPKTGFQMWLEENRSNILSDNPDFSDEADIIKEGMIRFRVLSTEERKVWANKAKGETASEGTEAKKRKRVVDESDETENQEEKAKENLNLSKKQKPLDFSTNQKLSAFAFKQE

[4] = target: the molecule itself; test: SEC-MALS; 100 µl AND-1 336–826 at 2–4 mg/ml on Superdex S200 10/300 GL; 25 mM HEPES pH 7.0, 200 mM NaCl
AND-1 SepB (336–826) = target: B2; test: pull-down; GST-Pol α fusion proteins bound to 100 µl glutathione agarose, 20 nmol AND-1 SepB added as prey; PD buffer, 2.5 mg/ml BSA, 4°C; eluted with 20 mM reduced glutathione; Coomassie; conditions: both partners purified

B1: GST-BNTD (B subunit amino acids 1–78) (domain or fragment, human, UniProt Q14181 1-78, looked up)
chain: MSASAQQLAEELQIFGLDCEEALIEKLVELCVQYGQNEEGMVGELIAFCTSTHKVGLTSEILNSFEHEFLSKRLSKAR
notes: human DNA polymerase α B subunit, residues 1-78 (four-helix bundle N-terminal domain); also called GST-B(1–78); B N-terminal domain; source: E. coli Rosetta2(DE3), purified (Ni-NTA agarose)
Q: Which results are given for B1?
A: binding result [1]: binds; binding result [2]: binds; binding result [3]: binds

Q: How did the “stoichiometry N” value [4] turn out when B2 was run?
A: 3

B3: GST-Pol α (148–171), wild type (domain or fragment, human)
chain: DKAVDLSKDGLLGDILQDLNTETP
notes: also called GST-Pol α CIP; GST-tagged Pol α CIP; source: E. coli Rosetta2(DE3), purified (Ni-NTA agarose); not shown: His tag (from the purification on Ni-NTA)
Q: Does B3 bind (AND-1 SepB (336–826))?
A: binds
